Data reported in article PMC8933513 (2022).
Substitutions are numbered along the chain they refer to.

Assays:
Assay in all cases: SPR
[1] = molecular target: T1, pAPN ectodomain W424A mutant (pig, UniProt P15145 58-961, W424A)
T1 sequence: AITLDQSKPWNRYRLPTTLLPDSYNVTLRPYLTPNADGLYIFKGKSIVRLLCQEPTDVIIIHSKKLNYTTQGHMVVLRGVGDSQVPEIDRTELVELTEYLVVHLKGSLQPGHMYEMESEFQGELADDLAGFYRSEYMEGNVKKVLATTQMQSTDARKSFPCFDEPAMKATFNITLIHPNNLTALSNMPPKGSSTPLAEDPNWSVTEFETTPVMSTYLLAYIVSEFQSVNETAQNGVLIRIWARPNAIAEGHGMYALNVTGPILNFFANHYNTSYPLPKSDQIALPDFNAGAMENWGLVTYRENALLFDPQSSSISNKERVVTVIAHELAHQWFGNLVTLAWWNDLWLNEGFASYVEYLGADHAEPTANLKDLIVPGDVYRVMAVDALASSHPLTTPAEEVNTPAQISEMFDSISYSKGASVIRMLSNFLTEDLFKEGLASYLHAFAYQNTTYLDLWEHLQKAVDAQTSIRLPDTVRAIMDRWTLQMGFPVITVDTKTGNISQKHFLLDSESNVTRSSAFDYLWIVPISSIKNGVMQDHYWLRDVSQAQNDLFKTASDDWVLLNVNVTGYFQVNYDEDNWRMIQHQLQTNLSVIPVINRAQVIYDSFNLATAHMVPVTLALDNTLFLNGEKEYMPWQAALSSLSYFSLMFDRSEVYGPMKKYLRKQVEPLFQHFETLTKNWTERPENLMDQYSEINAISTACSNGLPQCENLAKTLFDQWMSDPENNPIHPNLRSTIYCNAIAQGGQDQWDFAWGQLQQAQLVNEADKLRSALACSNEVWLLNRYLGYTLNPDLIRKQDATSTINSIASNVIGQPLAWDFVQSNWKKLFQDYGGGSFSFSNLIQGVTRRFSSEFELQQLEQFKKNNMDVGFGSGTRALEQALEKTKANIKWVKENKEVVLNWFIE

[2] = molecular target: hAPN ectodomain W429A mutant (human, UniProt P15144 62-963, W429A)
Chain of hAPN ectodomain W429A mutant (P15144 62-963 W429A): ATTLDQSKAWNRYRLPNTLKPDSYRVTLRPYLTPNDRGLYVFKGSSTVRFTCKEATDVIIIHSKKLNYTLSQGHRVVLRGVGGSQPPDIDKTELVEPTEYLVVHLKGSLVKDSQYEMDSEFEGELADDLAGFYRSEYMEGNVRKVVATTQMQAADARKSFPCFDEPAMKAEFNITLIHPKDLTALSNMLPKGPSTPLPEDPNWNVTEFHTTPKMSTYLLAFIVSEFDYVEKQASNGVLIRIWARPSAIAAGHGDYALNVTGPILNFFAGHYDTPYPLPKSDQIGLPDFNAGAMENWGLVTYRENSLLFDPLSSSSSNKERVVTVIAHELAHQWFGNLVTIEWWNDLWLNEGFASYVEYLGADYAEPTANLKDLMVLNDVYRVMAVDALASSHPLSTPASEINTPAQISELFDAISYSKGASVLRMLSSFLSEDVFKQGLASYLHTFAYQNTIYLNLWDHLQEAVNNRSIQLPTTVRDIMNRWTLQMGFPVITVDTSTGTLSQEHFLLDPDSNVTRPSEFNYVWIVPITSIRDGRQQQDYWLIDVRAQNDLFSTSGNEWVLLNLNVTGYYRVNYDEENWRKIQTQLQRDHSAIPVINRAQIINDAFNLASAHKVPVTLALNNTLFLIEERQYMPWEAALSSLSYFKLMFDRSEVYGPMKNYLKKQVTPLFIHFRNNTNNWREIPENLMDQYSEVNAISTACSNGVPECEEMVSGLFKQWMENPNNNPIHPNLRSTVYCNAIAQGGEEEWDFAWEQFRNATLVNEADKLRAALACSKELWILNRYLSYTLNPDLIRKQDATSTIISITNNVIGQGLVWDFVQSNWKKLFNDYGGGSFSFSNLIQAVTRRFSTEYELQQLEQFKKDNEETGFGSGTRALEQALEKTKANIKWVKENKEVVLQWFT

[3] = molecular target: hAPN ectodomain K379A mutant (human, UniProt P15144 62-963, K379A)
Chain of hAPN ectodomain K379A mutant (P15144 62-963 K379A): as the sequence (P15144 62-963 W429A) above, with K318A, A368W counted along it

[4] = molecular target: T2, porcine aminopeptidase N (pAPN) ectodomain, residues 58-961, wild type (pig, UniProt P15145 58-961)
T2 chain: T1 sequence with A367W

[5] = molecular target: hAPN ectodomain Y316A mutant (human, UniProt P15144 62-963, Y316A)
Chain of hAPN ectodomain Y316A mutant (P15144 62-963 Y316A): as the sequence (P15144 62-963 W429A) above, with Y255A, A368W counted along it

[6] = molecular target: hAPN ectodomain E745A mutant (human, UniProt P15144 62-963, E745A)
Chain of hAPN ectodomain E745A mutant (P15144 62-963 E745A): as the sequence (P15144 62-963 W429A) above, with A368W, E684A counted along it

B1: PDCoV spike (S) protein receptor binding domain (RBD), residues 300-419, wild type (domain or fragment)
chain: PKLPELEVVQLNISAHMDFGEARLDSVTINGNTSYCVTKPYFRLETNFMCTGCTMNLRTDTCSFDLSAVNNGMSFSQFCLSTESGACEMKIIVTYVWNYLLRQRLYVTAVEGQTHTGTTS
- Kd [1]: 116 µM
- Kd [2]: 127 µM
- Kd [3]: 444 µM
- Kd [4]: 44.2 µM
- Kd [5]: 37.1 µM
- Kd [6]: 3.06 µM
